Article PMC8434428

Target: Aca2 (anti-CRISPR associated protein 2) from Pectobacterium carotovorum bacteriophage ZF40 (Pectobacterium carotovorum bacteriophage ZF40)
Assay: SEC; final size exclusion run of untagged Aca2 on HiPrep 16/60 Sephacryl S-200 in buffer S [50 mM Tris-HCl (pH 7.9), 500 mM KCl, 10% glycerol]; oligomer judged from the elution volume

“Aca2 (anti-CRISPR associated protein 2) from Pectobacterium carotovorum bacteriophage ZF40 (natural protein)” was tested, and the stoichiometry N was 2.
